According to the supplement of paper PMC6757056:
± gives the standard deviation of the averaged measurements.

B1: library; a variant is named by its letters at N, in order (parent)
chain: GCUGUCACCGAGAAACUGUGAAGUAUAUCUUAAACCUGGGCACUUAAAAGAUAUAUGGAGUUAGUAGUGCAACCUGCUCGGUCUGAUGAGUCCNNNNNNGGACGAAACAGC

Legend:
cyclic di-GMP [1] = variants of: B1; assay: normalized RNA/DNA level without ligand (relative to sTRSVctl = 100) (log10 (% of sTRSVctl)); HEK293T; ligand: cyclic di-GMP (c-di-GMP-II aptamer); higher = less ribozyme self-cleavage, higher mRNA level; settings: reporter: mCherry (pCS4076), ligand present: no
Procedure, shortened: (§1)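 Total RNA, extracted with EDTA 72 h after HEK293T cells were transfected with 4 µg per 6-well well of reporter-linked ribozyme switch library plasmids, was reverse-transcribed, amplified, barcoded and sequenced. Ligand, if used, was added 1 h before transfection. RNA level was derived from RNA reads divided by DNA reads and normalized to a spiked-in non-cleaving sequence or to the top sequences. This was multiplied by 100 and log10-transformed, with the top set of 25 sequences and a ≥100 DNA read minimum.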

cyclic di-GMP [2] = variants of: B1; assay: normalized RNA/DNA level with ligand (relative to sTRSVctl = 100) (log10 (% of sTRSVctl)); HEK293T; ligand: cyclic di-GMP (c-di-GMP-II aptamer); ligand concentration (+) RNA-Seq: 1 mM; higher = less ribozyme self-cleavage, higher mRNA level; settings: reporter: mCherry (pCS4076), ligand present: yes
Procedure, shortened: as §1

Variant | normalized RNA/DNA level without ligand (log10) (cyclic di-GMP [1]) | normalized RNA/DNA level with ligand (log10) (cyclic di-GMP [2])
AUAUGC | 1.67 ± 0.021 | 1.83 ± 0.13
GGUUGU | 1.7 ± 0.061 | 1.86 ± 0.16
GGUUGC | 1.7 ± 0.018 | 1.87 ± 0.021
GGUUGA | 1.57 ± 0.15 | 1.74 ± 0.035
GUACGU | 1.63 ± 0.039 | 1.81 ± 0.063
GUAACA | 1.68 ± 0.035 | 1.81 ± 0.11
GUAACU | 1.7 ± 0.055 | 1.82 ± 0.13
GUAACC | 1.77 ± 0.084 | 1.87 ± 0.092
UGUUGG | 1.71 ± 0.04 | 1.86 ± 0.076
UGUUGU | 1.72 ± 0.015 | 1.9 ± 0.061
UGUUGC | 1.75 ± 0.026 | 1.89 ± 0.14
UGUUAU | 1.6763 ± 0.0012 | 1.84 ± 0.14
UUAAUU | 1.76 ± 0.072 | 1.88 ± 0.12
UUAAUC | 1.77 ± 0.075 | 1.83 ± 0.14
UUAAUA | 1.64 ± 0.044 | 1.8 ± 0.16
AUACUA | 1.597 ± 0.0074 | 1.78 ± 0.18
AUACUC | 1.74 ± 0.022 | 1.87 ± 0.072
AUACUU | 1.658 ± 0.0084 | 1.83 ± 0.13
AUACUG | 1.56 ± 0.049 | 1.73 ± 0.086
AGUUAU | 1.67 ± 0.06 | 1.86 ± 0.11
CUAGUC | 1.75 ± 0.039 | 1.83 ± 0.055
CUAGUG | 1.529 ± 0.0021 | 1.69 ± 0.12
CUAGUA | 1.56 ± 0.046 | 1.7 ± 0.04
CUAGUU | 1.739 ± 0.0023 | 1.89 ± 0.06

Variant | normalized RNA/DNA level without ligand (log10) (cyclic di-GMP [1]) | normalized RNA/DNA level with ligand (log10) (cyclic di-GMP [2])
CUACUA | 1.47 ± 0.14 | 1.64 ± 0.072
CUACUU | 1.56 ± 0.067 | 1.73 ± 0.059
CUACUG | 1.64 ± 0.025 | 1.83 ± 0.078
CUACUC | 1.7 ± 0.034 | 1.83 ± 0.069
CUAUCA | 1.538 ± 0.014 | 1.74 ± 0.038
CUAUCG | 1.79 ± 0.047 | 1.88 ± 0.12
CUAACC | 1.8 ± 0.038 | 1.84 ± 0.12
CUAACG | 1.77 ± 0.031 | 1.85 ± 0.15
CUAACA | 1.662 ± 0.0013 | 1.78 ± 0.09
GUAUCC | 1.73 ± 0.028 | 1.86 ± 0.13
GUAUCG | 1.63 ± 0.043 | 1.81 ± 0.098
GUAUCU | 1.68 ± 0.038 | 1.82 ± 0.084
GUAGGC | 1.6 ± 0.064 | 1.78 ± 0.048
GUAGGU | 1.6 ± 0.028 | 1.8 ± 0.1
GUAGGG | 1.55 ± 0.11 | 1.71 ± 0.025
CGUUUG | 1.71 ± 0.02 | 1.86 ± 0.069
CGUUUC | 1.59 ± 0.025 | 1.78 ± 0.11
CUAAGG | 1.748 ± 0.0049 | 1.8 ± 0.064
CUAAGA | 1.53 ± 0.068 | 1.72 ± 0.079
CUAAGC | 1.75 ± 0.039 | 1.87 ± 0.077
CUAAGU | 1.75 ± 0.063 | 1.84 ± 0.099
UUACUG | 1.67 ± 0.016 | 1.84 ± 0.096
UUACUC | 1.747 ± 0.0026 | 1.84 ± 0.093
UUACUU | 1.68 ± 0.022 | 1.83 ± 0.11

Variant | normalized RNA/DNA level without ligand (log10) (cyclic di-GMP [1]) | normalized RNA/DNA level with ligand (log10) (cyclic di-GMP [2])
AUAUAA | 1.5 ± 0.042 | 1.67 ± 0.13
AUAUAC | 1.68 ± 0.019 | 1.82 ± 0.12
AUAUAU | 1.678 ± 0.0055 | 1.83 ± 0.11
CUAUUC | 1.7 ± 0.012 | 1.85 ± 0.1
CUAUUU | 1.59 ± 0.024 | 1.75 ± 0.08
CUAUUG | 1.626 ± 0.0055 | 1.81 ± 0.1
GUAUGU | 1.6045 ± 0.00047 | 1.77 ± 0.087
GUAUGG | 1.53 ± 0.16 | 1.7 ± 0.042
GUAUGC | 1.56 ± 0.065 | 1.75 ± 0.084
UUAGUU | 1.77 ± 0.019 | 1.86 ± 0.14
UUAGUA | 1.609 ± 0.0054 | 1.79 ± 0.13
UUAGUC | 1.72 ± 0.048 | 1.83 ± 0.086
GGUUUA | 1.582 ± 0.0053 | 1.79 ± 0.099
GGUUUU | 1.7 ± 0.015 | 1.84 ± 0.077
GGUUUC | 1.8 ± 0.12 | 1.86 ± 0.12
CGUUCG | 1.81 ± 0.095 | 1.9 ± 0.16
AUAGAG | 1.46 ± 0.13 | 1.73 ± 0.082
AUAGAU | 1.58 ± 0.056 | 1.72 ± 0.12
UUAUGU | 1.7 ± 0.024 | 1.84 ± 0.11
UUAUGC | 1.73 ± 0.012 | 1.81 ± 0.1
AGUUGU | 1.66 ± 0.048 | 1.85 ± 0.11
AGUUGA | 1.57 ± 0.04 | 1.75 ± 0.1
AGUUGG | 1.63 ± 0.043 | 1.8 ± 0.11
AGUUGC | 1.67 ± 0.029 | 1.82 ± 0.12

Variant | normalized RNA/DNA level without ligand (log10) (cyclic di-GMP [1]) | normalized RNA/DNA level with ligand (log10) (cyclic di-GMP [2])
AUAAAA | 1.53 ± 0.056 | 1.67 ± 0.073
AUAAAC | 1.647 ± 0.0018 | 1.8 ± 0.13
AUAAAU | 1.59 ± 0.005 | 1.8 ± 0.11
CUAGCU | 1.72 ± 0.027 | 1.85 ± 0.13
CUAGCA | 1.71 ± 0.064 | 1.78 ± 0.13
CUAGCC | 1.77 ± 0.022 | 1.83 ± 0.075
CUAGCG | 1.772 ± 0.015 | 1.85 ± 0.18
GUAGAC | 1.595 ± 0.0029 | 1.79 ± 0.13
UUAACG | 1.81 ± 0.054 | 1.88 ± 0.11
UUAACU | 1.77 ± 0.02 | 1.87 ± 0.071
UUAACA | 1.7 ± 0.019 | 1.8 ± 0.091
UUAACC | 1.78 ± 0.073 | 1.85 ± 0.14
GUAGCC | 1.69 ± 0.071 | 1.8 ± 0.11
GUAGCU | 1.74 ± 0.065 | 1.83 ± 0.1
GUAGCG | 1.81 ± 0.022 | 1.88 ± 0.059
CUAUAC | 1.696 ± 0.016 | 1.83 ± 0.1
CUAUAG | 1.679 ± 0.012 | 1.84 ± 0.15
CUAUAU | 1.64 ± 0.035 | 1.77 ± 0.13
AUAUCU | 1.73 ± 0.062 | 1.86 ± 0.13
AUAUCA | 1.63 ± 0.032 | 1.79 ± 0.12
AUAUCG | 1.56 ± 0.022 | 1.75 ± 0.068
CUACGC | 1.74 ± 0.043 | 1.86 ± 0.084
CUACGU | 1.73 ± 0.017 | 1.82 ± 0.081
CUACGG | 1.8 ± 0.061 | 1.89 ± 0.08

Variant | normalized RNA/DNA level without ligand (log10) (cyclic di-GMP [1]) | normalized RNA/DNA level with ligand (log10) (cyclic di-GMP [2])
GUAAAC | 1.57 ± 0.017 | 1.74 ± 0.038
GUACCG | 1.77 ± 0.037 | 1.84 ± 0.069
GUACCU | 1.73 ± 0.029 | 1.83 ± 0.13
GUACCA | 1.68 ± 0.044 | 1.81 ± 0.13
GUACCC | 1.75 ± 0.058 | 1.88 ± 0.097
AGUUUG | 1.65 ± 0.088 | 1.77 ± 0.096
AGUUUC | 1.75 ± 0.025 | 1.85 ± 0.13
AGUUUU | 1.79 ± 0.033 | 1.89 ± 0.13
AUAACC | 1.75 ± 0.072 | 1.83 ± 0.1
AUAACA | 1.62 ± 0.003 | 1.77 ± 0.14
AUAACU | 1.67 ± 0.025 | 1.82 ± 0.068
AUAAGG | 1.54 ± 0.057 | 1.71 ± 0.12
AUAAGC | 1.6 ± 0.022 | 1.77 ± 0.082
AUAAGU | 1.55 ± 0.033 | 1.73 ± 0.12
AUAAGA | 1.4 ± 0.11 | 1.62 ± 0.12
AUACAC | 1.71 ± 0.02 | 1.82 ± 0.081
AUACAG | 1.59 ± 0.089 | 1.77 ± 0.04
UUAUUG | 1.7 ± 0.026 | 1.83 ± 0.16
UUAUUA | 1.68 ± 0.069 | 1.8 ± 0.13
UUAUUC | 1.76 ± 0.073 | 1.88 ± 0.14
